T1: PF3D7_0420300 D1 (Plasmodium falciparum, UniProt Q8I1N6 1956-2015)
T1 sequence: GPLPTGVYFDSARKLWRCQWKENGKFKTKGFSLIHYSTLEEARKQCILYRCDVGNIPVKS

B1: CACACA_site6075 (dsDNA)
DNA 1: AATAAATAAGCACATACACACATACATACATACATA
DNA 2: TATGTATGTATGTATGTGTGTATGTGCTTATTTATT
B2: CACACA_negctrl_site1541 (dsDNA)
DNA 1: TGCTAATAATTATTTGTTTAGCAACAAAAAAAAAAA
DNA 2: TTTTTTTTTTTGTTGCTAAACAAATAATTATTAGCA
B3: CACACA_site4200 (dsDNA)
DNA 1: TGTCCCCCTTTCTATGCACACTTTAAATTATTCAAA
DNA 2: TTTGAATAATTTAAAGTGTGCATAGAAAGGGGGACA
B4: CACACA_negctrl_site1405 (dsDNA)
DNA 1: ATGAAAAAAAAAAAAAAAAAAAAAAAAAAAAAAAAA
DNA 2: TTTTTTTTTTTTTTTTTTTTTTTTTTTTTTTTTCAT
B5: CACACA_site2584 (dsDNA)
DNA 1: ATTGCTTTTCTTTTTGCACACTTATGCATATATATA
DNA 2: TATATATATGCATAAGTGTGCAAAAAGAAAAGCAAT
B6: CACACA_negctrl_site146 (dsDNA)
DNA 1: TTTATAAAAAATTTTTTTTTTTTTTTTTAAATATAT
DNA 2: ATATATTTAAAAAAAAAAAAAAAAATTTTTTATAAA
B7: CACACA_negctrl_site1078 (dsDNA)
DNA 1: TAAATTCTTTAAAACTTTAAAACAAAAAAAAAAAAA
DNA 2: TTTTTTTTTTTTTGTTTTAAAGTTTTAAAGAATTTA
B8: CACACA_site9348 (dsDNA)
DNA 1: TATATTTTGTTCTTTCCACACACAAATACATATATT
DNA 2: AATATATGTATTTGTGTGTGGAAAGAACAAAATATA
B9: CACACA_negctrl_site1559 (dsDNA)
DNA 1: ATATTAAAATGAAAATATAAAAAAAAAAAAAAAAAA
DNA 2: TTTTTTTTTTTTTTTTTTATATTTTCATTTTAATAT
B10: CACACA_site8696 (dsDNA)
DNA 1: TGGGAAAAAATATATGCACACCCCCCAAAAAAAAAA
DNA 2: TTTTTTTTTTGGGGGGTGTGCATATATTTTTTCCCA
B11: CACACA_site76 (dsDNA)
DNA 1: GGCAGCAATTTAGTTACACACATATATAGGTATACA
DNA 2: TGTATACCTATATATGTGTGTAACTAAATTGCTGCC
B12: CACACA_negctrl_site916 (dsDNA)
DNA 1: TTTTTAAATAACCTATATATTATTATGAAACATAAA
DNA 2: TTTATGTTTCATAATAATATATAGGTTATTTAAAAA
B13: CACACA_site319 (dsDNA)
DNA 1: TATGTAACCTGTTTTACACACCCCCACCCCCCTCTT
DNA 2: AAGAGGGGGGTGGGGGTGTGTAAAACAGGTTACATA
B14: CACACA_negctrl_site412 (dsDNA)
DNA 1: ATAAAAAGGTTTAAAAAAAAAAAAAAAAAAAAAAAA
DNA 2: TTTTTTTTTTTTTTTTTTTTTTTTAAACCTTTTTAT
B15: CACACA_negctrl_site1120 (dsDNA)
DNA 1: TCTCAAAAAAAAAAAAAAAAAAAAAAATTAAAAAAT
DNA 2: ATTTTTTAATTTTTTTTTTTTTTTTTTTTTTTGAGA
B16: CACACA_site8720 (dsDNA)
DNA 1: TATGTATTAAATTTTACACACATGATTCTCTATATG
DNA 2: CATATAGAGAATCATGTGTGTAAAATTTAATACATA
B17: CACACA_negctrl_site1638 (dsDNA)
DNA 1: ACATGTATACTTTTTACGAAAAAAAAAAAAAAAAAA
DNA 2: TTTTTTTTTTTTTTTTTTCGTAAAAAGTATACATGT
B18: CACACA_negctrl_site1137 (dsDNA)
DNA 1: ATTATAAAAGAATTTTTTTTTATTTCATTAAAATAT
DNA 2: ATATTTTAATGAAATAAAAAAAAATTCTTTTATAAT
B19: CACACA_site4569 (dsDNA)
DNA 1: TTGCCCATTTCATTAACACACAAATGTTTATATTCT
DNA 2: AGAATATAAACATTTGTGTGTTAATGAAATGGGCAA
B20: CACACA_negctrl_site1119 (dsDNA)
DNA 1: ATTTTTTTTTTTTTTTTTTTTTTTTGGAGAAAGAGA
DNA 2: TCTCTTTCTCCAAAAAAAAAAAAAAAAAAAAAAAAT
B21: CACACA_negctrl_site1508 (dsDNA)
DNA 1: TTTTACTCTTAAAATAATAAAAAATATTCACATTTA
DNA 2: TAAATGTGAATATTTTTTATTATTTTAAGAGTAAAA
B22: CACACA_site632 (dsDNA)
DNA 1: ATATAATATTAGTGCACACACAAAAATGTACTAAAC
DNA 2: GTTTAGTACATTTTTGTGTGTGCACTAATATTATAT
B23: CACACA_site5088 (dsDNA)
DNA 1: CCAACATAGAGGGGCACACACATATATACCTAAAAA
DNA 2: TTTTTAGGTATATATGTGTGTGCCCCTCTATGTTGG
B24: CACACA_negctrl_site29 (dsDNA)
DNA 1: TTTTTTTTTTTTTTTTTTTTTTTGCTCAGTGTGGTA
DNA 2: TACCACACTGAGCAAAAAAAAAAAAAAAAAAAAAAA
B25: CACACA_site6664 (dsDNA)
DNA 1: CATATATTTTGAAACACACACATATAAAATATACAT
DNA 2: ATGTATATTTTATATGTGTGTGTTTCAAAATATATG
B26: CACACA_site2206 (dsDNA)
DNA 1: AAAAAAAACACGCGCACACACACACCCACCCACCGA
DNA 2: TCGGTGGGTGGGTGTGTGTGTGCGCGTGTTTTTTTT
B27: CACACA_negctrl_site896 (dsDNA)
DNA 1: TGATTAAAAGAGGGAAAAAAAAAAAAAAAAAAAAAA
DNA 2: TTTTTTTTTTTTTTTTTTTTTTCCCTCTTTTAATCA
B28: CACACA_site8811 (dsDNA)
DNA 1: TTAAAAATATATATAACACACACATAATATATATAT
DNA 2: ATATATATATTATGTGTGTGTTATATATATTTTTAA
B29: CACACA_negctrl_site1696 (dsDNA)
DNA 1: TTCCTTCAAAATTTAAGTAATAAGATAAAAATATAA
DNA 2: TTATATTTTTATCTTATTACTTAAATTTTGAAGGAA
B30: CACACA_site2783 (dsDNA)
DNA 1: TATGAAAGAAATAGTACACACATAAACATTTGTAAA
DNA 2: TTTACAAATGTTTATGTGTGTACTATTTCTTTCATA
B31: CACACA_negctrl_site392 (dsDNA)
DNA 1: TGGTCTTTTAAACAAAAATATAAATTTTTAAATATG
DNA 2: CATATTTAAAAATTTATATTTTTGTTTAAAAGACCA
B32: CACACA_site1373 (dsDNA)
DNA 1: TACAAAATATATATGACACACATAAAAAAAAGTATA
DNA 2: TATACTTTTTTTTATGTGTGTCATATATATTTTGTA
B33: CACACA_negctrl_site27 (dsDNA)
DNA 1: TTTTTTGGGTAAAATTATAAAATATGTATATATAAA
DNA 2: TTTATATATACATATTTTATAATTTTACCCAAAAAA
B34: CACACA_negctrl_site558 (dsDNA)
DNA 1: TTTTTTATATTAAATGAAGAATATACAAAATTTTAA
DNA 2: TTAAAATTTTGTATATTCTTCATTTAATATAAAAAA
B35: CACACA_negctrl_site307 (dsDNA)
DNA 1: TATTCTATAAATATATTTTTTTAATTTTTTATTTTA
DNA 2: TAAAATAAAAAATTAAAAAAATATATTTATAGAATA
B36: CACACA_site6737 (dsDNA)
DNA 1: TAAAAAATAAAATACACACACATATTTATATTTATA
DNA 2: TATAAATATAAATATGTGTGTGTATTTTATTTTTTA
B37: CACACA_site4699 (dsDNA)
DNA 1: AAACAGAAGACATATACACACATACAAAAAAGTGCA
DNA 2: TGCACTTTTTTGTATGTGTGTATATGTCTTCTGTTT
B38: CACACA_site8226 (dsDNA)
DNA 1: TGATAACCTAATAATACACACACATGAATATATATA
DNA 2: TATATATATTCATGTGTGTGTATTATTAGGTTATCA
B39: CACACA_site5336 (dsDNA)
DNA 1: TATAATAATAAAAACACACACGTTGATTGTATTAGC
DNA 2: GCTAATACAATCAACGTGTGTGTTTTTATTATTATA
B40: CACACA_negctrl_site1218 (dsDNA)
DNA 1: TAATTTTTTTTTTTTTTTTTTTTTTTTTTTTTTTTA
DNA 2: TAAAAAAAAAAAAAAAAAAAAAAAAAAAAAAAATTA
B41: CACACA_site2222 (dsDNA)
DNA 1: GGAAAAAATATATGCACACCCCCCAAAAAAAAAAAA
DNA 2: TTTTTTTTTTTTGGGGGGTGTGCATATATTTTTTCC
B42: CACACA_site4181 (dsDNA)
DNA 1: GGATATATTTTATGTACACACACATATAAGGGATTA
DNA 2: TAATCCCTTATATGTGTGTGTACATAAAATATATCC
B43: CACACA_site6811 (dsDNA)
DNA 1: CATATAAAGATATGAACACACAAAAAGAATATTTCC
DNA 2: GGAAATATTCTTTTTGTGTGTTCATATCTTTATATG
B44: CACACA_site9117 (dsDNA)
DNA 1: AAAAAAAAAAAAAAAACACACATACACCCCCACCCA
DNA 2: TGGGTGGGGGTGTATGTGTGTTTTTTTTTTTTTTTT

Target: T1, PF3D7_0420300 D1
Assay: gcPBM; about 25 ug protein; PBS, 1% milk, 0.2 mg/ml BSA, salmon testes DNA, 0.03% Triton X-100
Conditions: tags: N-terminal GST (pGEX-4T-1), kept; label: surface-attached array probe

Binder | binding signal
B1 | 9.71 ln median PBM intensity, better of two orientations
B2 | 8.69 ln median PBM intensity, better of two orientations
B3 | 9.68 ln median PBM intensity, better of two orientations
B4 | 8.53 ln median PBM intensity, better of two orientations
B5 | 9.72 ln median PBM intensity, better of two orientations
B6 | 8.66 ln median PBM intensity, better of two orientations
B7 | 8.74 ln median PBM intensity, better of two orientations
B8 | 9.82 ln median PBM intensity, better of two orientations
B9 | 8.43 ln median PBM intensity, better of two orientations
B10 | 10.7 ln median PBM intensity, better of two orientations
B11 | 9.67 ln median PBM intensity, better of two orientations
B12 | 8.75 ln median PBM intensity, better of two orientations
B13 | 10.7 ln median PBM intensity, better of two orientations
B14 | 8.38 ln median PBM intensity, better of two orientations
B15 | 8.78 ln median PBM intensity, better of two orientations
B16 | 9.65 ln median PBM intensity, better of two orientations
B17 | 8.58 ln median PBM intensity, better of two orientations
B18 | 8.74 ln median PBM intensity, better of two orientations
B19 | 9.7 ln median PBM intensity, better of two orientations
B20 | 8.63 ln median PBM intensity, better of two orientations
B21 | 8.65 ln median PBM intensity, better of two orientations
B22 | 9.79 ln median PBM intensity, better of two orientations

Binder | binding signal
B23 | 9.64 ln median PBM intensity, better of two orientations
B24 | 8.55 ln median PBM intensity, better of two orientations
B25 | 9.81 ln median PBM intensity, better of two orientations
B26 | 10.7 ln median PBM intensity, better of two orientations
B27 | 8.33 ln median PBM intensity, better of two orientations
B28 | 9.8 ln median PBM intensity, better of two orientations
B29 | 8.8 ln median PBM intensity, better of two orientations
B30 | 9.73 ln median PBM intensity, better of two orientations
B31 | 8.76 ln median PBM intensity, better of two orientations
B32 | 9.69 ln median PBM intensity, better of two orientations
B33 | 8.81 ln median PBM intensity, better of two orientations
B34 | 8.73 ln median PBM intensity, better of two orientations
B35 | 8.77 ln median PBM intensity, better of two orientations
B36 | 9.78 ln median PBM intensity, better of two orientations
B37 | 9.75 ln median PBM intensity, better of two orientations
B38 | 9.76 ln median PBM intensity, better of two orientations
B39 | 9.66 ln median PBM intensity, better of two orientations
B40 | 8.72 ln median PBM intensity, better of two orientations
B41 | 10.7 ln median PBM intensity, better of two orientations
B42 | 9.74 ln median PBM intensity, better of two orientations
B43 | 9.72 ln median PBM intensity, better of two orientations
B44 | 10.7 ln median PBM intensity, better of two orientations
